# In PMC13534887:
# Molecular target: PaMprF H566C mutant (Pseudomonas aeruginosa)
# Test: cross-linking + native gel or EMSA; purified enzymes in GDN and in nanodisc, with cross-linker; SDS added to the sample before loading on the BN-PAGE gel
substance,measurement,value
PaMprF H566C mutant (enzyme),stoichiometry N,2
